The term pKd denotes the negative decadic logarithm of the Kd, by convention in mol/L. The term koff denotes the rate constant with which the complex falls apart. The term kon denotes the rate constant with which the complex forms. A high value points to fast association. A word on the stoichiometry N: it is the number of molecules, sites or subunits per partner or assembly.

pKd: −log10 of the molar value.

These results are taken from article PMC6755811.

For assay [1], the target named is HER2-binding monomeric IgA1 with Man3GlcNAc2 (MM) N-glycans (human). The assay is described as follows: SPR; Biacore T200; IgA glycoforms captured on a Protein L chip, FcαRI glycoforms injected in single-cycle kinetics at five concentrations (31.5 to 500 nM); 1x PBS, 0.05% Tween, 0.1% BSA; 1:1 binding model; average of four independent experiments. Background: In SPR one partner is held on a chip, and binding of the other changes the refractive index at the surface.

Assay [2] deals with HER2-binding monomeric IgA2m(2) with Man3GlcNAc2 (MM) N-glycans (human). The description is as above.
Assay [3] concerns the target HER2-binding monomeric IgA2m(2) with sialylated (NaNa) N-glycans (human). Described as above.
The target of assay [4] is HER2-binding monomeric IgA1 with terminally sialylated (NaNa) N-glycans (human). The description is as above.
The target of assay [5] is HER2-binding monomeric IgA2m(2) with heterogeneous complex N-glycans (human). As to the kind of experiment: ITC; 10 μM IgA in the cell titrated with 160 μM FcαRI from the syringe; PBS pH 7.4, 25 °C, 19 injections. (In general: In ITC the heat of successive injections is recorded.)
Assay [6] deals with HER2-binding monomeric IgA2m(2) with complex N-glycans (human). As to the kind of experiment: ITC; 10 μM IgA in the sample cell titrated with 160 μM FcαRI; 25 °C; PBS, pH 7.4.
The target in assay [7] is HER2-binding monomeric IgA1 with heterogeneous complex N-glycans, produced in HEK293F cells (human). The assay is described as above.
The target of assay [8] is HEK293F-produced IgA1-Fc deletion protein lacking the Fab domain (human). The assay is described as follows: SEC-MALS; SE-HPLC-MALS, Superdex 200 10/300 GL; IgA mixed with the receptor in a molar ratio of 1:4 starting from 25 μg of IgA. A general note: In gel filtration, larger molecules generally elute earlier.
Assay [9] has as its target HER2-binding monomeric IgA1 with mostly biantennary GlcNAc2Man3GlcNAc2 (GnGn) complex N-glycans (human). Described as above.

Chain of HEK293F-produced IgA1-Fc deletion protein lacking the Fab domain (human) (P01876 1-364, stated change not applied): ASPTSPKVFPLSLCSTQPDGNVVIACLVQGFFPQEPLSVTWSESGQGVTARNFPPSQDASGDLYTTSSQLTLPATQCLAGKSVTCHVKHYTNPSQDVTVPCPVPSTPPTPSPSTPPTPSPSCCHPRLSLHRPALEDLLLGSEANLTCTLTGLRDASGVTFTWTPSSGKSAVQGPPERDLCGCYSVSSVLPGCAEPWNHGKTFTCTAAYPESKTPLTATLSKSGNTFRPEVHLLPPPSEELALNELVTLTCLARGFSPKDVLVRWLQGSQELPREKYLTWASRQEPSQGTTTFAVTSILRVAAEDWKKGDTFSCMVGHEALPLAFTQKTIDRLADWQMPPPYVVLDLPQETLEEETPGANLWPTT

For “extracellular domain of human FcαRI (CD89) with complex sialylated N-glycans (from UniProt P24071 22-227) (receptor)”, the negative logarithm of the Kd (pKd) in [1] is 6.73; in assay [2], 6.65; in assay [3], 6.69; in [4], 6.83; in [5], 6.79. Further, the koff amounted to 0.07 s⁻¹ in assay [1], 0.06 s⁻¹ in assay [2], 0.06 s⁻¹ in [3] and 0.07 s⁻¹ in assay [4]. Also, the association rate constant (kon) came out at 350000 M⁻¹ s⁻¹ in assay [1], 280000 M⁻¹ s⁻¹ in assay [2], 300000 M⁻¹ s⁻¹ in [3] and 520000 M⁻¹ s⁻¹ in assay [4]. This substance also came in with a stoichiometry N in assay [5] of 1.33.
In [5], “extracellular domain of human FcαRI with oligomannosidic N-glycans (from UniProt P24071 22-227) (receptor)” had a negative-log Kd (pKd) of 7.04 and a stoichiometry N of 1.36.
For the substance “extracellular domain of human FcαRI with single GlcNAc residues at each N-glycosylation site (from UniProt P24071 22-227) (receptor)”, the pKd in [1] is 7.60; in [2], 7.58; in assay [3] it was 7.60; in [4], 7.59. In addition, the koff in assay [1] came to 0.05 s⁻¹; in [2] it was 0.03 s⁻¹; in [3] it was 0.03 s⁻¹; in assay [4], 0.06 s⁻¹. Also, the association rate constant (kon) in [1] turned out to be 1.9e+06 M⁻¹ s⁻¹; in [2], 1.2e+06 M⁻¹ s⁻¹; in assay [3] it was 1.3e+06 M⁻¹ s⁻¹; in assay [4], 2.3e+06 M⁻¹ s⁻¹.
With “extracellular domain of the human FcαRI (CD89) with complex sialylated N-glycans (from UniProt P24071 22-227) (receptor)”, the stoichiometry N (FcαRI per IgA) is 1.3 in assay [6], 1.3 in assay [7] and 1 in assay [9]. In addition, in [8], the stoichiometry N (FcαRI per IgA1-Fc) amounted to 1.
Regarding “extracellular domain of the human FcαRI with oligomannosidic N-glycans (from UniProt P24071 22-227) (receptor)”, the stoichiometry N (FcαRI per IgA) in [6] and in assay [7] was 1.3 each time.
